Values belong to the substance of their own block, whether it stands above or below them.
Columns and labels:
[1] = biological target: human VEGFR2, over-expressed on HEK293 cells (human) (UniProt P35968); experiment: flow cytometry, HEK cells over-expressing human VEGFR2
[2] = biological target: human VEGFR3, over-expressed on K562 cells (human) (UniProt P35916); experiment: flow cytometry, K562 cells over-expressing human VEGFR3
[3] = biological target: Recombinant mouse VEGFR1-Fc (R&D Systems) (mouse) (UniProt P35969); experiment: MSD ECL competition on plate-bound mouse VEGFR1-Fc; competitor biotin PlGF (2 nM)
Chain of Recombinant mouse VEGFR1-Fc (R&D Systems) (mouse) (P35969 27-759 limits assumed): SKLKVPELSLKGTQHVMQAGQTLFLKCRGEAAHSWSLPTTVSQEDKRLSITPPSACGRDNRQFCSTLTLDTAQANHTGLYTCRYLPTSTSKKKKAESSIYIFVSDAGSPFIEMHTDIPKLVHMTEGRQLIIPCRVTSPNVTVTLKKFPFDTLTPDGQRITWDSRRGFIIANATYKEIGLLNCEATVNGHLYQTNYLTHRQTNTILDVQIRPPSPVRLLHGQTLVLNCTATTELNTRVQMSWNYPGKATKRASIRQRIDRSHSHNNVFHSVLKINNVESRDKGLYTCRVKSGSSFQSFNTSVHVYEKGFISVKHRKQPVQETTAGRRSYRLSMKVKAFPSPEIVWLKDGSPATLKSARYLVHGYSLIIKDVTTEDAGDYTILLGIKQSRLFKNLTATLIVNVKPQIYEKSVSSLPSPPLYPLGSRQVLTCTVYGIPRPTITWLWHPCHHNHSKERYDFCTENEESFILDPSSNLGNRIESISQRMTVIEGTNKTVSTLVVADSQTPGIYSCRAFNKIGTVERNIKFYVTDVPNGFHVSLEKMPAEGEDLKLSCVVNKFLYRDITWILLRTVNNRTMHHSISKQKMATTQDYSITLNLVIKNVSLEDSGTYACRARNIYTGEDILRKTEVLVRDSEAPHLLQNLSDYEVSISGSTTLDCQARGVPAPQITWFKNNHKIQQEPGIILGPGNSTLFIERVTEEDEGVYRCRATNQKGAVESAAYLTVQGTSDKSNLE

Chain of human VEGFR2, over-expressed on HEK293 cells (human) (P35968 20-1356): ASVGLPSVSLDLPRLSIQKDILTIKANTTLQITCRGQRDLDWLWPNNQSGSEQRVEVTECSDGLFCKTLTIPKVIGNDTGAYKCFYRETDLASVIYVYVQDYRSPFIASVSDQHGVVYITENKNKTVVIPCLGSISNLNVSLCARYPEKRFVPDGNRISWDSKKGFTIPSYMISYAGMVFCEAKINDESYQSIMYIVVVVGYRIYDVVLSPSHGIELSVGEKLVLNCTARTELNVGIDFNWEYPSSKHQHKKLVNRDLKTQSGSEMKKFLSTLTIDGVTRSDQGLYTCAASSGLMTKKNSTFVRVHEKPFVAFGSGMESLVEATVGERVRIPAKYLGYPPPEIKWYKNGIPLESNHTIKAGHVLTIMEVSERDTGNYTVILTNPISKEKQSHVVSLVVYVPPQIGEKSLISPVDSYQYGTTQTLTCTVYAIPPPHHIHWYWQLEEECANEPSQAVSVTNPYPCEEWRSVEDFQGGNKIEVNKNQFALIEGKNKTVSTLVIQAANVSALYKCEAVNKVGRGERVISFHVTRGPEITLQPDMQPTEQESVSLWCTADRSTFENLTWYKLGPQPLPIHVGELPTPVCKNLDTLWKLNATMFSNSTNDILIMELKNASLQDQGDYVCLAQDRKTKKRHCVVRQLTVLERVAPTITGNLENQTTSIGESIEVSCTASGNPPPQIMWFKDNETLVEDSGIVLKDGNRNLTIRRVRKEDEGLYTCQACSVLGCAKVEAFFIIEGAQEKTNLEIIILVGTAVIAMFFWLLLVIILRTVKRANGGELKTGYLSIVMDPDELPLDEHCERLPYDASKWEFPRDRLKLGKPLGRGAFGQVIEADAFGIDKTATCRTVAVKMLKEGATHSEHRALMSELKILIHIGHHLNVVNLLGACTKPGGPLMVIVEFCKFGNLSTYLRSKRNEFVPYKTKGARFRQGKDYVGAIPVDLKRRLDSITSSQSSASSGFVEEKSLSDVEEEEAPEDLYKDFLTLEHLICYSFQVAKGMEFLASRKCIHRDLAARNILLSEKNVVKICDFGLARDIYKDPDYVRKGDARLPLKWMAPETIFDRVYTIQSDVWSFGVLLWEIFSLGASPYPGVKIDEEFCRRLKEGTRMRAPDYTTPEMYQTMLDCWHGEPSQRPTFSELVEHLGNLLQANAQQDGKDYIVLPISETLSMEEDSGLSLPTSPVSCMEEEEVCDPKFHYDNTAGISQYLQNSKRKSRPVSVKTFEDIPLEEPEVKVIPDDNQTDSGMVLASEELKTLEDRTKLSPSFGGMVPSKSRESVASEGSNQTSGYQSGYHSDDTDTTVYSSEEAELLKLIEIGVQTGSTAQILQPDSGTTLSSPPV
Chain of human VEGFR3, over-expressed on K562 cells (human) (P35916 25-1363): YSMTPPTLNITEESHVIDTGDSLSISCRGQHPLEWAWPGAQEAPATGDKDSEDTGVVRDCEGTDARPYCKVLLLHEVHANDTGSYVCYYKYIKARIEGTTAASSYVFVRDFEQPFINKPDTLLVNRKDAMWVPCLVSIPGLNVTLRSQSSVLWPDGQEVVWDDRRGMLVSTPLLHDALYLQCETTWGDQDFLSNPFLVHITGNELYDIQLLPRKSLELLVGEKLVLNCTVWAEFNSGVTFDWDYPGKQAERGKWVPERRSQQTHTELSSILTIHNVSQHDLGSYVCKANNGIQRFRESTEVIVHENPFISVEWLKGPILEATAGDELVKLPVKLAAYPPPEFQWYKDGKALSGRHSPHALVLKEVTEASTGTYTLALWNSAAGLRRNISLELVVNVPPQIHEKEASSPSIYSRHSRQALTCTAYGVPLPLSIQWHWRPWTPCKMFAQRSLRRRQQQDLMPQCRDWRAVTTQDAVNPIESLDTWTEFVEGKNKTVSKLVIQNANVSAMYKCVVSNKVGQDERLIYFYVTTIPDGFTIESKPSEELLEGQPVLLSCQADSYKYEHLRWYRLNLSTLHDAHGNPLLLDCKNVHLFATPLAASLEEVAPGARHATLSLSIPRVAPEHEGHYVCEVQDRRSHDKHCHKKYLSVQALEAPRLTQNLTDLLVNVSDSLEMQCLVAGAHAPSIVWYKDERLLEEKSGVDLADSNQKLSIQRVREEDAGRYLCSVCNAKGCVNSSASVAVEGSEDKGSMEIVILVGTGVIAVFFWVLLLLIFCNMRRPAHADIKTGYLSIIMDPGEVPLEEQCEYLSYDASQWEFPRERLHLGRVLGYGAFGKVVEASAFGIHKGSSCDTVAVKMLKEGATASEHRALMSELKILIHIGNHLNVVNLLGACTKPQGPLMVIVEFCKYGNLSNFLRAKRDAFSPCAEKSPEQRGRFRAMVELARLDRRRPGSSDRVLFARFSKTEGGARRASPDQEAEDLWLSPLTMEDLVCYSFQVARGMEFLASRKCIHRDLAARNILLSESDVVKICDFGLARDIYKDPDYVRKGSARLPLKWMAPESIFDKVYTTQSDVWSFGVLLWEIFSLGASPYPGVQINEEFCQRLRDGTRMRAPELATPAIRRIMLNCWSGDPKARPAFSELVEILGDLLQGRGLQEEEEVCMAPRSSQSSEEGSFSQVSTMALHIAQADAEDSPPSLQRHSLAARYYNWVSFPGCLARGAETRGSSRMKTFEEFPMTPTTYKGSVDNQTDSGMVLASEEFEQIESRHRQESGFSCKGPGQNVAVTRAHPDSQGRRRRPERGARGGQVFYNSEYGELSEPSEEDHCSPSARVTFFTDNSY

Geomean over-expressing/Geomean parental (Fold Signal/Background) [1]: 28 fold
Substance: Goat anti-human VEGFR2 (R&D Systems Catalog #AF357) (antibody)

Geomean over-expressing/Geomean parental (Fold Signal/Background) [2]: 132 fold
Substance: Goat anti-human VEGFR3 (R&D Systems Catalog #AF349) (antibody)

IC50 [3]: 163 pM | Max % Inh. [3]: 100%
Substance: PlGF as used on mouse VEGFR1 (ligand)
